# pKd: −log10 of the molar value. Where “and” joins values, the source holds several entries; their conditions need not be identical. Equal values may be shown once.
# What was measured:
# [1] = biological target: Streptococcal surface enolase mutant SEN^K312A (Streptococcus pyogenes (group A Streptococcus)) (UniProt P69949); test: native MS; Superdex-200 in 200 mM NH4OAc pH 6.8, peak fractions pooled, Synapt HDMS under conditions that preserve non-covalent interactions; single peak of wild type and K312A, elution peak 1 of K362A
# [2] = biological target: Streptococcal surface enolase mutant SEN^K312A (Streptococcus pyogenes (group A Streptococcus)) (UniProt P69949); test: crystal structure; hanging drop, 1-3.5 M sodium/potassium phosphate pH 5-7.5, 2% PEG 400; space group P4; octamer = tetramer of dimers
# [3] = biological target: Human Glu-plasminogen (circulating form of human plasminogen) (human); test: SPR; BIAcore 3000; Glu-plasminogen immobilised on a CM5 chip (~10,000 RU; also a lower-density surface ~1,000 RU); 100 nM SEN injected 500 s at room temperature in 10 mM HEPES pH 7.4, 0.15 M NaCl, 3 mM EDTA, 0.005% P20, 30 ul/min; kinetic models could not be fitted, assessed qualitatively
# [4] = biological target: Human Glu-plasminogen (circulating form of human plasminogen) (human); test: ELISA; plate coated with serial dilutions of Glu-plasminogen (carbonate buffer pH 9.6); wells incubated with 5 ug wild-type or mutant SEN; apparent KD, one-site specific binding
# [5] = biological target: Streptococcal surface enolase mutant SEN^K362A (Streptococcus pyogenes (group A Streptococcus)) (UniProt P69949); test: native MS; Superdex-200 in 200 mM NH4OAc pH 6.8, peak fractions pooled, Synapt HDMS under conditions that preserve non-covalent interactions; single peak of wild type and K312A, elution peak 1 of K362A
# [6] = biological target: Streptococcal surface enolase mutant SEN^K362A (Streptococcus pyogenes (group A Streptococcus)) (UniProt P69949); test: crystal structure; hanging drop, 1-3.5 M sodium/potassium phosphate pH 5-7.5, 2% PEG 400; space group P4; octamer = tetramer of dimers
# [7] = biological target: Streptococcal surface enolase (SEN), wild-type, group A Streptococcus (Streptococcus pyogenes) (Streptococcus pyogenes (group A Streptococcus)) (UniProt P69949); test: native MS; Superdex-200 in 200 mM NH4OAc pH 6.8, peak fractions pooled, Synapt HDMS under conditions that preserve non-covalent interactions; single peak of wild type and K312A, elution peak 1 of K362A
# [8] = biological target: Streptococcal surface enolase (SEN), wild-type, group A Streptococcus (Streptococcus pyogenes) (Streptococcus pyogenes (group A Streptococcus)) (UniProt P69949); test: crystal structure; hanging drop, 1-3.5 M sodium/potassium phosphate pH 5-7.5, 2% PEG 400; space group P4; octamer = tetramer of dimers
Substance,stoichiometry N [1],stoichiometry N [2],percent increase in plasminogen binding (against wild-type SEN) [3],pKd [4],stoichiometry N [5],stoichiometry N [6],stoichiometry N [7],stoichiometry N [8]
Streptococcal surface enolase mutant SEN^K312A (from UniProt P69949 1-435) (enzyme),8,8,196%,7.71,,,,
Streptococcal surface enolase mutant SEN^K362A (from UniProt P69949 1-435) (enzyme),,,341%,8.73,8 and 7,8,,
"Streptococcal surface enolase (SEN), wild-type, group A Streptococcus (Streptococcus pyogenes) (from UniProt P69949 1-435) (enzyme)",,,,7.85,,,8,8

# From PMC4373793
